Data on one molecule can be found in US6423315.

For this assay, the target named is I-A^q molecule of MHC (mouse (DBA/1)). The experiment in a line: cell-based or functional assay.

Consider PTGPLGPKGQTGZLGIAGFKGZQGPK [CII 245-270], for which the IL-2 U/ml, T-cell hybridoma 2qCII92.33, molar ratio 0:1 (no competitor; baseline in the row of CII 245-270 [s260, 261, 263]) amounted to 160 U/ml; the IL-2 U/ml, T-cell hybridoma 2qCII92.33, molar ratio 0:1 (no competitor; baseline in the row of CII 245-270 [s266, 267, 269]) was 160 U/ml; the IL-2 U/ml, T-cell hybridoma qCII85.33, molar ratio 0:1 (no competitor; baseline in the row of CII 245-270 [s260, 261, 263]) was found to be 640 U/ml; the IL-2 U/ml, T-cell hybridoma qCII85.33, molar ratio 0:1 (no competitor; baseline in the row of CII 245-270 [s266, 267, 269]) was 640 U/ml. Besides, the IL-2 U/ml, T-cell hybridoma qCII98.10, molar ratio 0:1 (no competitor; baseline in the row of CII 245-270 [s260, 261, 263]) amounted to 160 U/ml and the IL-2 U/ml, T-cell hybridoma qCII98.10, molar ratio 0:1 (no competitor; baseline in the row of CII 245-270 [s266, 267, 269]) stood at 160 U/ml.
